Here are results for two molecules from patent publication US20230277625A1 (SIMCHA IL 18, published 2023).

Assay [1] has as its target T1, Human IL-18BP (amino acids 31-194), biotinylated (human, UniProt O95998 31-194, biotin on the AviTag (BirA ligase) where used biotinylated).
T1 construct: Soluble decoy receptor; also called hIL-18BP; recombinant IL-18BP
T1 sequence: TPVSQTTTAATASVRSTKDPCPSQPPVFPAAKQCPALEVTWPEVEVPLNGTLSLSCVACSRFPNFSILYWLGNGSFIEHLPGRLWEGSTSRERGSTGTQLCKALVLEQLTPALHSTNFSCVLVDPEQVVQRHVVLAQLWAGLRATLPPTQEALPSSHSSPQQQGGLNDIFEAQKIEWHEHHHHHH
Nature of the assay: on-yeast binding isotherm (flow cytometry). Background: A flow cytometer gives signals particle by particle.

Assay [2] has as its target T1, Human IL-18BP (amino acids 31-194), …. Description: SPR (Biacore T100), IL-18BP captured via biotin, IL-18 as analyte. How it is done:
(§1) Experiments were conducted using a Biacore T100 and carried out at 25° C. Biotinylated IL-18Rα or IL-18BP were immobilized onto a Biacore biotin capture chip (Series S CAP sensor chip, GE Healthcare) to yield an Rmax of ˜50 RU (IL-18Rα) or ˜10 RU (IL-18BP). Measurements were made with serial dilutions of the IL-18 variants in HEPES buffered Saline-P+buffer (10 mM HEPES pH 7.4, 150 mM NaCl, 0.005% surfactant P20). The surface was regenerated by three 60-sec injections of regeneration buffer (3/4 (v/v) 8M guanidine hydrochloride with 1/4 (v/v) 1M sodium hydroxide). Experiments were performed in multiple channels simultaneously for increased observations. All data were analyzed with the Biacore T100 evaluation software version 2.0 with a 1:1 Langmuir binding model.
(§2) To additionally characterize the receptor binding activities of the DR-IL-18 variants, the cytokines were expressed recombinantly and surface plasmon resonance for IL-18Rα and IL-18BP was performed (see FIG. 5B for representative traces).
(SPR reads the build-up and loss of mass on a sensor chip optically.)

For assay [3], the target named is T2, Human IL-18Rα ectodomain (amino acids 19-329), biotinylated (human, UniProt Q13478 19-329, biotin on the AviTag (BirA ligase)).
T2 construct: range 19-329; Secreted from insect cells (gp67 signal peptide removed); also called hIL-18Rα; hIL18Rα
T2 sequence: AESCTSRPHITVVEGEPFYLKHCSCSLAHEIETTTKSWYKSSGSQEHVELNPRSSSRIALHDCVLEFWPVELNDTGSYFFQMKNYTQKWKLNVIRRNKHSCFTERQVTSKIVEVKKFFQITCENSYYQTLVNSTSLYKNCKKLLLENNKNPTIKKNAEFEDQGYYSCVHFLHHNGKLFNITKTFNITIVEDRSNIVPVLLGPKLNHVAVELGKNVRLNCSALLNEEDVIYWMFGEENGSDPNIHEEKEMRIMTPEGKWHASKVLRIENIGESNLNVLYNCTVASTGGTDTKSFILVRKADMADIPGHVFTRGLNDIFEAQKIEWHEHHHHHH
Description: SPR; average of 2 studies.

In assay [4] the target is T1, Human IL-18BP (amino acids 31-194), …. Nature of the assay: SPR; average of 2 studies.
Assay [5] shares this target. Nature of the assay: SPR; KD(IL-18BP)/KD(IL-18Rα) normalized to WT IL-18.
Assay [6] concerns the target T2, Human IL-18Rα ectodomain (amino acids …). Description: on-yeast binding isotherm (flow cytometry), drawn summary table, IL18Rα (KD). The essentials: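 Yeast displaying IL-18 variants were grown at 30 °C, then induced 1 day at 20 °C, with display checked by anti-myc-PE. Cells were stained on ice with biotinylated IL-18Rα (± IL-18Rβ) or biotinylated IL-18BP in PBS/0.5% BSA/2 mM EDTA. Binding was read by flow cytometry.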

Assay [7] concerns the target T1, Human IL-18BP (amino acids 31-194), …. Description: SPR, immobilized biotinylated hIL-18BP, representative sensorgram FIG. 5B; representative sensorgram, FIG. 5B; single run, not the average. How it is done:
(§3) By contrast, very little binding is observed with the same variants and hIL-18BP (right).
as §1

Assay [8] has the same target. Nature of the assay: on-yeast binding isotherm (flow cytometry), drawn summary table, column IL18BP (KD). How it is done: (§4) Individual colonies of IL-18 yeast were grown overnight at 30° C. in SDCAA liquid media and induced in SGCAA liquid media for 1 day at 20° C. IL-18 display levels on yeast were verified by flow cytometry using an anti-cMyc tag antibody (anti-myc-PE; Cell Signaling Technologies). Receptor staining with biotinylated IL-18Rα (with or without IL-18R β) or biotinylated IL-18BP was performed in PBS supplemented with 0.5% BSA and 2 mM EDTA (PBE) on ice. All analysis was performed on a Sony SA3800 flow cytometer.

For assay [9] the target is unchanged. Description: SPR; KD for IL-18BP over KD for IL-18Rα. How it is done: as §1, §2
Assay [10] shares this target. Nature of the assay: on-yeast binding isotherms; KD for IL-18BP over KD for IL-18Rα.
Assay [11] shares this target. Description: on-yeast binding isotherm (flow cytometry); members per FIG. 5A legend. How it is done: as §4, §2
The target of assay [12] is T2, Human IL-18Rα ectodomain (amino acids …). Description: SPR (Biacore T100), receptor captured via biotin, IL-18 as analyte. How it is done:
as §1, §2

Assay [13] has as its target T1, Human IL-18BP (amino acids 31-194), …. Nature of the assay: SPR; KD ratio relative to WT IL-18. How it is done: as §1, §2
The target is the same in assay [14]. Nature of the assay: SPR, single-cycle injections of 1.5, 4.5, 13.5, 40.5 and 121.5 nM over immobilized biotinylated hIL-18BP; the sheet prints two constants, KD1 and KD2 (KD2 = 15.2 nM is the value in the text). How it is done:
as §3, §1

Assay [15] has the same target. Description: on-yeast binding isotherms; KD ratio relative to WT IL-18.
For assay [16] the target is unchanged. Description: SPR; KD ratio relative to WT IL-18; SPR; ratio normalized to WT. How it is done: as §1, §2
For assay [17] the target is unchanged. Description: SPR; KD for IL-18BP over KD for IL-18Rα; SPR; ratio of two measured KD. How it is done: as §1, §2
Assay [18] has the same target. Nature of the assay: on-yeast binding isotherms; 20 µM used for NBD; yeast-displayed variant; ratio computed with 20 µM put in for NBD.
Assay [19] shares this target. Nature of the assay: on-yeast binding isotherms; KD ratio relative to WT IL-18; yeast-displayed variant; ratio normalized to WT, from the 20 µM placeholder.
Assay [20] shares this target. Description: SPR; average of 2 studies; SPR, average of 2 studies.
The target is the same in assay [21]. Nature of the assay: SPR (Biacore T100), IL-18BP captured via biotin, IL-18 as analyte; SPR, recombinant soluble variant, biotinylated hIL-18BP on the chip. How it is done:
as §1, §2

As a reminder, the Kd is the constant that tells how readily two partners part at equilibrium. The term EC50 denotes the concentration needed to bring the measured effect to its halfway point. Read a low EC50 as greater potency.

A value given as a limit tells only on which side of the number the result lay.

B1: SEQ ID NO: 34 (human DR-IL-18 variant hCS1) (ligand)
chain: YFGKLESKLSVIRNLNDQVLFIDQGNRPLFEDMTDSDCRDNAPRTIFIISTYKDSQPRGKAVTISVKCEKISTLSCENKIISFKEMNPPDNIKDTKSDIIFFQRDVPGHKHKMQFESSSYEGYFLACEKERDLFKLILKKEDELGDRSIMFTVQNED
notes: Engineered variant
On to B1, for which the Kd in assay [1] stood at 19300 nM; in assay [2], 19.4 nM; in assay [3], 8 nM; in [4], 11.8 nM; in assay [6], 146 nM; in assay [7], 15.2 nM. Also, the Kd worked out at 710 nM in assay [8] and 8.05 nM in assay [12]. For the same molecule, the “IL-18 BP:Rα Dissociation Constant Ratio” value in assay [5] came out at 3020. The “KD ratio IL-18BP/IL-18Rα” value in assay [9] turned out to be 2.41; in [10], 300. Moreover, in [11], the EC50 is over 1000 nM. Besides, the “Dissociation Constant Ratio normalized to WT IL-18” value stood at 3720 in assay [13] and 1020 in [15]. Also, the “KD1 (first of two fitted dissociation constants)” value in assay [14] worked out at 36.7 nM.

B2: SEQ ID NO: 37 (human DR-IL-18 variant hCS4) (ligand)
chain: RFGKLESKLSVIRNLNDQVLFIDQGNRPLFEDMTDSDCRDNAPRTIFIISTYRDSQPRGKAVTISVKCEKISTLSCENKIISFKEMNPPDNIKDTKSDIIFFQRNVPGHKYKMQFESSSYEGYFLACEKERDLFKLILKKEDELGDRSIMFTVQNED
notes: Engineered variant
Consider B2, for which the results for the “Dissociation Constant Ratio normalized to WT IL-18” value in assay [16] and in assay [19] were 64500 and over 424, respectively. The figures for the “KD ratio IL-18BP/IL-18Rα” value in assay [17] and in assay [18] were 41.8 and over 125, respectively. The Kd in assay [3] stood at 7.7 nM; in assay [12] it was 4.38 nM; in [20], 121 nM; in assay [21] it was 183 nM. For the same molecule, the “IL-18 BP:Rα Dissociation Constant Ratio” value in assay [5] is 32200. In assay [11], this molecule displayed an EC50 of over 1000 nM.
